The target of assay [1] is T1, ENO2-GST (human ENO2 expressed from pGEX 4t-1, GST-column purified) (human, UniProt P09104 1-434).
T1 construct: Expressed in E. coli BL21(DE3) and used to coat ELISA plates at 100 ng/well; also called pGEX 4t-1载体表达的ENO2; ENO2-4t-1; not shown: GST tag supplied by vector pGEX 4t-1
Nature of the assay: ELISA screening of hybridoma supernatants on ENO2-GST coated plates. Background: An ELISA detects its analyte on a solid surface through an enzyme-linked reagent.

Assay [2] deals with T2, ENO2flag (ENO2 with C-terminal flag tag, pcDNA3.1, expressed in 293T cells) (human, UniProt P09104 2-434, limits assumed).
T2 construct: Tested as a lysate of transfected 293T cells (Western blot) and in acetone-fixed transfected 293T cells (immunofluorescence); also called ENO2flag-pcDNA3.1; ENO2抗原; not shown: C-terminal flag tag
T2 sequence (P09104 2-434 limits assumed): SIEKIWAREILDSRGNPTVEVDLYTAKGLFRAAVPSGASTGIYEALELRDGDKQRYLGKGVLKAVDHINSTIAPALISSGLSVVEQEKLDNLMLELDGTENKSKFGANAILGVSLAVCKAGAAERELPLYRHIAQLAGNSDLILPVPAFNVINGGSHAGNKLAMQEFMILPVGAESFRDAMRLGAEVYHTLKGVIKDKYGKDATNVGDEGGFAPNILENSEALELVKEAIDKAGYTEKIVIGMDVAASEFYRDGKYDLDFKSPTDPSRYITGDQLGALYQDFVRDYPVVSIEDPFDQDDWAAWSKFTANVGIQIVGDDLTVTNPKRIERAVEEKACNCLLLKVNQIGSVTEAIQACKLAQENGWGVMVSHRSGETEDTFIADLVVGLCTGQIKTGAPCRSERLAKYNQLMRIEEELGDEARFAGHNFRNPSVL
Put plainly: Western blot, lysate of 293T cells transfected with ENO2flag-pcDNA3.1, hybridoma supernatant. For orientation: In western blotting, separated proteins are transferred to a membrane and probed.

The target of assay [3] is T3, 纯化的ENO2蛋白 (coating protein of the Example 7 ELISA) (human, UniProt P09104 1-434).
T3 construct: also called 抗原ENO2
T3 sequence (P09104 whole entry): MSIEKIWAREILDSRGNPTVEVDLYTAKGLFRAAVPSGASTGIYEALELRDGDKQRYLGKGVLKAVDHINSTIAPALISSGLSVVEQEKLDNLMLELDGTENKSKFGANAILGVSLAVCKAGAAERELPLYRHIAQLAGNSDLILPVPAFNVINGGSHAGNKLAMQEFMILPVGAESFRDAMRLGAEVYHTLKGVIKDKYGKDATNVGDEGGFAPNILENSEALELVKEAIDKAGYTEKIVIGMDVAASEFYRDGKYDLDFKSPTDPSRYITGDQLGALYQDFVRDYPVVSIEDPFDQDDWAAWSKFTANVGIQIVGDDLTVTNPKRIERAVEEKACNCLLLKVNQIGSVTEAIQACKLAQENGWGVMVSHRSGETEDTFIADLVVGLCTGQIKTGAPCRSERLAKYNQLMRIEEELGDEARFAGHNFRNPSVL
Nature of the assay: ELISA, ENO2-coated plate (100 ng/well), 293T supernatant, HRP anti-IgG / anti-kappa secondary.

T1 sequence (P09104 whole entry): as above

B1: 抗神经特异性烯醇化酶的单克隆抗体4C11 (hybridoma-derived) (antibody, V domains shown)
VH: EVKLVESGGGLVQPGGSLRLSCATSGFTFTDYYMSWVRQPPGKALEWLGFIRNKANGYTTEYSASVKGRFTISRDNSQSILYLQMNTLRAEDSATYYCARDGDGSARWGQGTLVTVSA
VL: DIQMTQTTSSLSASLGDRVTISCRASQDISNYLNWYQQKPDGTVKLLIYYTSRLHSGVPSRFSGSGSGTDYSLTISNLEQEDIATYFCQQGNTLPYTFGGGTRLEIR
notes: Mouse hybridoma antibody; It was tested as hybridoma supernatant or ascites; also called 4C11单克隆抗体
Consider B1, for which the binding result in assay [1] and in assay [2] was “binds” in each case.

B2: 重组4C11抗体重链4C11mG1 (transfected alone) (other)
heavy: B1 VH
notes: Heavy chain only, with no light chain; tested as 293T culture supernatant; not shown: mouse IgG1 heavy-chain constant region supplied by vector pFUSE-CHIg-mG1 (invivogen)
B2: the binding result in assay [3] is “no binding”.

B3: 重组4C11抗体轻链4C11mk (transfected alone) (other)
light: DIQMTQTTSSLSASLGDRVTISCRASQDISNYLNWYQQKPDGTVKLLIYYTSRLHSGVPSRFSGSGSGTDYSLTISNLEQEDIATYFCQQGNTLPYTFGGGTRLEIRRADAAPTVSIFPPSSEQLTSGGASVVCFLNNFYPKDINVKWKIDGSERQNGVLNSWTDQDSKDSTYSMSSTLTLTKDEYERHNSYTCEATHKTSTSPIVKSFNRNEC
notes: Light chain only, with no heavy chain; tested as 293T culture supernatant
As for B3, in assay [3], the binding result is “no binding”.

Source of the values: patent CN114426582A (SHAANXI PULSE ELEMENT BIOTECHNOLOGY LTD COMPANY, dated 2022).
